Usually EC50 stands for the midpoint of the concentration-response curve. A word on the Kd: it is a measure of binding affinity in units of concentration. A higher Kd goes with a looser complex.

For 3 molecules, EC50 and Kd results are on record in US20200347130A1 (JIANGSU HENGRUI MEDICINE, published 2020).

Assay [1] addresses T1, Full-length human CD96 on CHO-S cells (human, UniProt P40200 22-585).
T1 construct: also called CD96-CHOs; hCD96-CHOs
T1 sequence: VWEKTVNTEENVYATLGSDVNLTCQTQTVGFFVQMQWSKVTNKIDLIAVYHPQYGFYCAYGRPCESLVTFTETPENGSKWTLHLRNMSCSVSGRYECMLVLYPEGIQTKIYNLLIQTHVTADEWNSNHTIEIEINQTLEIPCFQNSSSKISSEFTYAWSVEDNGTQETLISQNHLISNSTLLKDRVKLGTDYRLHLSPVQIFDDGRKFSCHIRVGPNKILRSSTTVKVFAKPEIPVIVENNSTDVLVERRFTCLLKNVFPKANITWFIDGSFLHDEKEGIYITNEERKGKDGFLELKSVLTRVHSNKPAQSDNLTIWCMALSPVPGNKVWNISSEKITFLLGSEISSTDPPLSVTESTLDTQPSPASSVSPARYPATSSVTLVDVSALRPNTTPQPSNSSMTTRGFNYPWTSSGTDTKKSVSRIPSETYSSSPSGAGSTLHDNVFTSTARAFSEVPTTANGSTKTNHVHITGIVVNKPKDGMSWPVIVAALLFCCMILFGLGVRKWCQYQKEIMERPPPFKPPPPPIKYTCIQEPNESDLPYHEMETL
Nature of the assay: cell ELISA, fixed CD96-overexpressing CHO-S cells. Here is the method: The binding capacity of the anti-CD96 antibody was tested by binding experiments of the antibody to human CD96 protein overexpressing CHO-S cells. The full-length CD96 plasmid was transfected into CHO-S cells by electrotransfection, and cells were then screened for two weeks under pressure for the detection of the expression of CD96. After the over-expressing cells were fixed at the bottom of the 96-well plate, the density of the signal after adding the antibody was used to judge the binding activity of the antibody to CD96 overexpressing CHO-S cells. The specific experimental method is as follows:
The cells were seeded at a density of 9×10⁴/100 μL/well in a 96-well plate and cultured overnight. After aspirating the supernatant, the plate was washed once with PBS, subsequently, 100 μl/well immunostaining fixation solution (Biyuntian, P0098) was added and fixed for one hour at room temperature, and the plate was washed three times with PBS. Once the liquid was discarded, 250 μl/well of 5% skim milk (BD, 232100) blocking solution diluted with PBS was added, and the plate was blocked in an incubator at 37° C. for 2.5 hours. After blocking, the blocking solution was discarded, the plate was washed 4 times with PBST buffer (pH 7.4 PBS containing 0.05% tween-20), followed by diluting 50 μl/well of different concentrations of the antibodies (hybridoma purification antibody or humanized antibody) to be tested the plate was incubated in an incubator at 37° C. for 2 hours. After incubation, the plate was wash 4 times with PBST. […] After washing the plate 4 times with PBST, 50 μl/well of TMB chromogenic substrate (KPL, Cat No. 52-00-03) was added, the plate was incubated at room temperature for 10-25 min, followed by adding 50 μl/well of 1M H₂SO₄ to stop the reaction. The absorption value was read at 450 nm with a NOVOStar microplate reader, and the EC50 value of the CD96 antibodies to CD96 overexpressing CHO-S cells was calculated (see FIG. 1 and Table 15).
(In general: ELISA stands for enzyme-linked immunosorbent assay.)

In assay [2] the target is T2, CD96 extracellular region with His tag (CD96-His) (human, UniProt P40200 22-519).
T2 construct: also called CD96-ECD-His; Bio-CD96-His (biotin-labelled form)
T2 sequence: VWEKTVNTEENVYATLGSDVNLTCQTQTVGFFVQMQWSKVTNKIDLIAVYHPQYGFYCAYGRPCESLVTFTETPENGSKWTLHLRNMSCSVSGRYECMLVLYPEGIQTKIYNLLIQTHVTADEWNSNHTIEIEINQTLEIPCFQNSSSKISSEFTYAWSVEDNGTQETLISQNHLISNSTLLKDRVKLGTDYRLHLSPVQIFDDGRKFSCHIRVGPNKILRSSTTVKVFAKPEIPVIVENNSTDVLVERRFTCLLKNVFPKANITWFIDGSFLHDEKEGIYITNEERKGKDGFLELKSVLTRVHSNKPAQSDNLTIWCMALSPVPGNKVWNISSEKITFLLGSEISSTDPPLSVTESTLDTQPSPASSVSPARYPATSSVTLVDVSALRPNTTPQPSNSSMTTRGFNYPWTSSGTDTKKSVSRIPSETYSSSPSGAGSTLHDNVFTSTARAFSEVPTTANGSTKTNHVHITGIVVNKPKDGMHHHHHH
Nature of the assay: SPR (Biacore), antibody captured, CD96-ECD-His as mobile phase. The text has this: Protein A biosensor chip was used to capture antibodies to be tested, then CD96 antigen was flowed on the surface of the chip, and real time reaction signal was detected by Biacore to obtain the binding and dissociation curve. After the dissociation of each experimental cycle was completed, the biosensor chip was washed and regenerated with a glycine-hydrochloric acid regeneration solution (pH 1.5).
A general note: In SPR one partner is held on a chip, and binding of the other changes the refractive index at the surface.

The target of assay [3] is T2, CD96 extracellular region with His tag …. Nature of the assay: ELISA, CD96-His coated. Here is the method:
The binding capacity of the anti-CD96 antibody was tested by ELISA to determine the binding of the antibody to human CD96 protein. The His-tagged CD96 fusion protein was used to coat the microtiter plate, and the intensity of the signal after adding with the antibody was used for evaluating the binding activity of the antibody and CD96. The specific experimental method is as follows:
CD96-His with the sequence of SEQ ID NO: 4 prepared in Embodiment 1 was diluted to a concentration of 2 μg/ml with PBS buffer (Shanghai Yuanpei Biotechnology Co., Ltd. Cat No. B320), pH 7.4, added to a 96-well microtiter plate (Corning, Cat No. CLS3590-100EA) at a volume of 50 μl/well, and placed in an incubator at 37° C. for 2 hours. After discarding the liquid, 250 μl/well of 5% skim milk (BD, Cat No. 232100) blocking solution diluted with PBS was added, and the plate was incubated at 37° C. for 2.5 hours or at 4° C. overnight (16-18 hours) for blocking. After blocking, the blocking solution was discarded, and the plate was washed 4 times with PBST buffer (pH 7.4 PBS containing 0.05% tween-20). 50 μl/well of different concentrations of the antibodies to be tested (hybridoma purification antibody or humanized antibody) diluted with sample dilution was added, and the plate was incubated in an incubator at 37° C. for 1 hour. […] After washing the plate 4 times with PBST, 50 μl/well of TMB chromogenic substrate (KPL, Cat No. 52-00-03) was added, and the plate was incubated at room temperature for 5-15 minutes, followed by adding 50 μl/well of 1M H₂SO₄ to stop the reaction. The absorption value was read at 450 nm with a NOVOStar microplate reader, and the EC50 value of the binding of CD96 antibody to human CD96 was calculated (see Table 13).

B1: ch1722 (antibody, human IgG4 S228P, kappa, V domains shown)
VH: QVQLQQPGAELVKPGTSVKLSCKASGNTFIDYWMHWVKQRPGQGLEWIGMLHPNSGTTSFNEKFKIKTTLTIDKSSSTAYMQLSSLTSEDSAIYYCASDYSGPFAYWGQGTLVTVSA
VL: QIVLTQSPGIMSAFPGEKVTMTCSASSSVNYIHWYQQKSGTSPKRWIFDTSKLASGVPARFSGSGSGTSYSLTISSMEAEDAATYYCQQWRSNPLTFGAGTKLELKR
notes: also called chi722; chimeric antibody corresponding to m1722
Turning to B1, the EC50 in assay [1] came to 0.043 nM; in assay [3] it was 0.094 nM. Further, the Kd in assay [2] was found to be 1.05 nM.

B2: h1719-006 (antibody, V domains shown)
VH: EVTLKESGPVLVKPTETLTLTCTVSGFSLSSYGVSWVRQPPGKGLEWLGVIWGDGNTNYHSVLISRLTISKDTSKSQVVLTLTNMDPVDTATYYCAKNNYYGSRYGYPMDYWGQGTTVTVSS
VL: DIQMTQSPSSVSASVGDRVTITCKATQDVGTAVAWYQQKPGKSPKLLIYWASTRHTGVPERFSGSGSGTDFTLTISSLQPEDFATYFCQQYGSSVLTFGGGTKVEIK
notes: also called M719-006
B2: the concentration giving a half-maximal response (EC50) in assay [1] came to 0.016 nM; in assay [3], 0.083 nM. Further, the affinity in assay [2], expressed as Kd, was 13.1 nM.

B3: h1719-014 (antibody, V domains shown)
VH: EVTLKESGPVLVKPTETLTLTCTVSGFSLSSYGVSWVRQPPGKGLEWLGVIWGDGNTNYHSVLISRLTISKDTSKSQVVLTLTNMDPVDTATYYCAKNYYYGSRYGYPLDYWGQGTTVTVSS
VL: DIQMTQSPSSVSASVGDRVTITCKATQDVGTAVAWYQQKPGKSPKLLIYWASTRHTGVPERFSGSGSGTDFTLTISSLQPEDFATYFCQQYGSSVLTFGGGTKVEIK
notes: Only variable regions are tied to this name; also called M719-014
As for B3, the EC50 in assay [1] amounted to 0.02 nM; in assay [3] it was 0.091 nM. In assay [2], this molecule had a Kd of 14.9 nM.
